From article PMC12379891

Target: AeCRK^G359E (kinase-dead cysteine-rich receptor-like kinase of Aeschynomene evenia), mCherry-tagged and YFP-tagged copies (Aeschynomene evenia)
Experiment: co-IP

Row | fold enrichment in the co-IP over the negative control MtLYK3-CFP | Substance
1 | 2.9 fold | AeRLCK2-YFP (receptor-like cytoplasmic kinase 2 of Aeschynomene evenia) (natural protein)
2 | 7.37 fold | AeCRK^G359E (kinase-dead cysteine-rich receptor-like kinase of Aeschynomene evenia), mCherry-tagged and YFP-tagged copies
